Experimental findings from publication doi:10.64898/2025.12.09.693204 (bioRxiv, 2025) are described below.

The test deals with Homo sapiens importin-β (Homo sapiens, UniProt Q14974 1-876). Kind of test: partitioning into phase-separated condensates.
Sequence of Homo sapiens importin-β (Q14974 whole entry): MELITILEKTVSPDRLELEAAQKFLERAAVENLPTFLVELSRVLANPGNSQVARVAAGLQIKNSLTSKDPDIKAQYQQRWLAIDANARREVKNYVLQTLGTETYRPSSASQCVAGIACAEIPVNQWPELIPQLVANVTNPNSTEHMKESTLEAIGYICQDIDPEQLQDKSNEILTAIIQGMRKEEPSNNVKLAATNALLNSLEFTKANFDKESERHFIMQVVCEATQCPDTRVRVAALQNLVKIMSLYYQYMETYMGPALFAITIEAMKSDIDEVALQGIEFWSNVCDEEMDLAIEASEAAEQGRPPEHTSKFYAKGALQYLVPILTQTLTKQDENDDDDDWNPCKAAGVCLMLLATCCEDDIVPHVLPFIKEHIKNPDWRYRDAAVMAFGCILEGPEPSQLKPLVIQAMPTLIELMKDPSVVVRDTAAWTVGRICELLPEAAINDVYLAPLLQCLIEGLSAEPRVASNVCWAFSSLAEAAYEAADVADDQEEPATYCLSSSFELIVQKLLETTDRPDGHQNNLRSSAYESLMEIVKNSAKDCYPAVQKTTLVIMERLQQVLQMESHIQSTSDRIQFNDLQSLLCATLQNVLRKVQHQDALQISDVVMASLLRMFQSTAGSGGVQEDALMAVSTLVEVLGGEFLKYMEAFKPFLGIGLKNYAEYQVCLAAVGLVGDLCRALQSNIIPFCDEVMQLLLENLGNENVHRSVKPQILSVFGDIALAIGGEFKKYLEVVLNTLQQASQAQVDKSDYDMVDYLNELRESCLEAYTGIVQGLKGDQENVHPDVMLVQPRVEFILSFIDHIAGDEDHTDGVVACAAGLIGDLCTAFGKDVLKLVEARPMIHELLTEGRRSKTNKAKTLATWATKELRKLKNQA

B1: Homo sapiens NUP98 FG domain (residues 1-505, GLEBS domain residues 157-213 excluded) (domain or fragment, UniProt P52948 1-505, looked up)
chain: MFNKSFGTPFGGGTGGFGTTSTFGQNTGFGTTSGGAFGTSAFGSSNNTGGLFGNSQTKPGGLFGTSSFSQPATSTSTGFGFGTSTGTANTLFGTASTGTSLFSSQNNAFAQNKPTGFGNFGTSTSSGGLFGTTNTTSNPFGSTSGSLFGPSSFTAAGPQNQVGAGTTTGLFGSSPATSSATGLFSSSTTNSGFAYGQNKTAFGTSTTGFGTNPGGLFGQQNQQTTSLFSKPFGQATTTQNTGFSFGNTSTIGQPSTNTMGLFGVTQASQPGGLFGTATNTSTGTAFGTGTGLFGQTNTGFGAVGSTLFGNNKLTTFGSSTTSAPSFGTTSGGLFGNKPTLTLGTNTNTSNFGFGTNTSGNSIFGSKPAPGTLGTGLGAGFGTALGAGQASLFGNNQPKIGGPLGTGAFGAPGFNTTTATLGFGAPQAPVALTDPNASAAQQAVLQQHI
Consider B1, for which the binding result was “binds”.
